Read-outs that look alike come from different tables or passages of the source.
T1: full length human TROP2 on 293F-TROP2 cells (human, UniProt P09758 27-323)
T1 construct: also called 293F-TROP2 cells (clone ID #3A8); cell surface TROP2
T1 sequence: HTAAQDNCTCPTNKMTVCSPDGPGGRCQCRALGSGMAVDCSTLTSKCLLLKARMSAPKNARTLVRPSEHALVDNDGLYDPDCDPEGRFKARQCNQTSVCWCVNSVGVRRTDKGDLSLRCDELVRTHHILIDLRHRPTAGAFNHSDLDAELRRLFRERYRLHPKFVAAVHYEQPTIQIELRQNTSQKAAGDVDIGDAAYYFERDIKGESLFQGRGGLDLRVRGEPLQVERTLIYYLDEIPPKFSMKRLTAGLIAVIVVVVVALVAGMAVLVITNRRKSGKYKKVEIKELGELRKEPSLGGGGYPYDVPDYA

T2: cynomolgus TROP2-his protein (cynomolgus monkey, UniProt P09758 27-272 (human entry), limits assumed)
T2 construct: no cleavage site is stated; also called Cynomolgus monkey TROP2-his protein; monkey TROP2
T2 chain: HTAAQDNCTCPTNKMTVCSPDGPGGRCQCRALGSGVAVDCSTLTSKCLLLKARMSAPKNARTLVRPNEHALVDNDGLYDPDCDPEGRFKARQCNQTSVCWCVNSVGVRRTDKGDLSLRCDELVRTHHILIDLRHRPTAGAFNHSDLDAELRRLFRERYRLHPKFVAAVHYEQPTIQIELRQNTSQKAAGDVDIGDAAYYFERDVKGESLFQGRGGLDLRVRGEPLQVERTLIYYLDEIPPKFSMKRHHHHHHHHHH

T3: human TROP2-his protein (human, UniProt P09758 27-274)
T3 construct: Biotin-labelled in the ELISAs, unlabelled analyte in Biacore; also called biotin-labeled human TROP2-his protein; biotin human Trop2-his
T3 sequence: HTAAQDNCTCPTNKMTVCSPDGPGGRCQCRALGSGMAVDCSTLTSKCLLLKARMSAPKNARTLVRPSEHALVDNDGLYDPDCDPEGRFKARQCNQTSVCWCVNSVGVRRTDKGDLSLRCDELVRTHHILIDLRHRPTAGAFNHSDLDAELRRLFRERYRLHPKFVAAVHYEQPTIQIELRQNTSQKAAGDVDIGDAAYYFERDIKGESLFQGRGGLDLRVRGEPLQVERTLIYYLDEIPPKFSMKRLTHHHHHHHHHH


How the values were obtained:
[1] = target: T1, full length human TROP2 on 293F-TROP2 …; assay: FACS on 293F-TROP2 cells, MFI
[2] = target: T2, cynomolgus TROP2-his protein; assay: indirect ELISA, cynomolgus TROP2-his coated at 2 ug/mL, OD(450-630)
Method: (§1) The anti-TROP2 antibodies of the disclosure were tested for their cross-reaction with cynomolgus TROP2 proteins. Briefly, 96-well micro plates were coated with 100 μl 2 μg/ml cynomolgus TROP2-his proteins (prepared in-house with SEQ ID NO: 70) in carbonate/bicarbonate buffer (pH 9.6) overnight at 4° C. ELISA plates were washed once with wash buffer (PBS+0.05% v/v Tween-20, PBST) and then blocked with 200 μl/well blocking buffer (5% w/v non-fatty milk in PBST) for 2 hours at 37° C. […] After a final wash, plates were incubated with 100 μl/well TMB (Innoreagents) at room temperature. The reaction was stopped 3-10 minutes later at room temperature with 50 μl/well 1M H₂SO₄, and the absorbance of each well was read on a microplate reader using dual wavelength mode with 450 nm for TMB and 630 nm as the reference wavelength. The OD (450-630) values were plotted against antibody concentration. Data was analyzed using Graphpad Prism software and EC₅₀ values were reported.

[3] = target: T2, cynomolgus TROP2-his protein; assay: as above
Method: as §1

human TROP2-his protein [4] = target: T3, human TROP2-his protein; assay: competitive ELISA: BM1 coated, antibody premixed with biotin human TROP2-his; blocked: binding of TROP2-his to coated BM1; partial only: OD falls from about 1.9 to a plateau of about 1.3
human TROP2-his protein [5] = target: T3, human TROP2-his protein; assay: capture ELISA, antibody captured on anti-human IgG Fc coat, biotin human TROP2-his in solution, OD(450-630)
Method: Plates were washed once with wash buffer (PBS+0.05% v/v Tween-20, PBST) and then blocked with 200 μl/well blocking buffer (5% w/v non-fatty milk in PBST) for 2 hours at 37° C. […] Plates containing captured anti-TROP2 antibodies were incubated with biotin-labeled human TROP2-his protein (prepared in house, SEQ ID NO: 67, 56.7 ng/mL in 2.5% w/v non-fatty milk in PBST, 100 μl/well) for 40 minutes at 37° C., washed 4 times, and incubated with streptavidin conjugated HRP (1:10000 dilution in PBST, Jackson Immuno Research, Cat #016-030-084, 100 μl/well) for 40 minutes at 37° C. After a final wash, plates were incubated with 100 μl/well ELISA substrate TMB (Innoreagents, Cat #TMB-S-002) at room temperature. The reaction was stopped in 3-10 minutes at room temperature with 50 μl/well 1M H₂SO₄, and the absorbance of each well was read on a microplate reader using dual wavelength mode with 450 nm for TMB and 630 nm as the reference wavelength. The OD (450-630) values were plotted against antibody concentration. Data was analyzed using Graphpad Prism software and EC₅₀ values were reported.
For the Capture ELISA, AffiniPure F(ab′)₂ Fragment Goat Anti-Human IgG, Fcγ fragment specific (Jackson Immunoresearch, Cat #109-006-008) was used instead of AffiniPure Goat Anti-Mouse IgG, Fcγ fragment specific, 100 μl/well.

| Binder | EC50 [1] [nM] | EC50 (read off the curve) [2] [nM] | EC50 [3] [nM] | IC50 (human TROP2-his protein [4]) [nM] | EC50 (human TROP2-his protein [5]) [nM] | EC50 [2] [nM] |
| --- | --- | --- | --- | --- | --- | --- |
| mouse antibody C1B3B12D2 (antibody, V domains shown, Mouse monoclonal IgG purified from hybridoma supernatant) VH: QVQLQQSGPELVRPGTSVKMSCKAAGYTFTKFWIGWVKQRPGHGLEWIGNIYPGGAYINYNENFKGKATLTADTFSSTAYMQLNSLTSADSAIYYCAREGSSGYWGQGTTLTVSS VL: DIVMTQSPSSLTVTAGEKVTLSCKCSQSLLNSGTQENYLTWYQQKPGQPPKMLIYWASIREPGVPDRFTGSGSGTDFTLTINNVQAEDLAVYYCQHDYSYPFTFGSGTKLEIK | 0.636 | ~0.6 | – | – | – | – |
| mouse antibody A1E4F7D4 (antibody, V domains shown, Mouse monoclonal IgG purified from hybridoma supernatant; also called Mouse A1E4F7D4) VH: QVQLQQSGAELAKPGTSVKMSCEASGYSFTTHWIHWMKQRPGQGLEWIGTIFPSNAYAVYNQKFRDRAIMTADRSSTTAYIQLTGLTSEDSAVYYCARASYFDYWGQGTTLTVSS VL: DILLTQSPATLSVSPGERVTFSCRASQNIGTSIHWFQQRTTGSPRLLIKYASESISGIPSRFSGSGSGTDFTLHINSVESEDIAHYYCQHSHSWPFTFGSGTKLEIQ | 1.01 | – | 0.576 | 0.702 | – | – |
| mouse antibody A1E11A12D1 (antibody, V domains shown, Mouse monoclonal IgG purified from hybridoma supernatant) VH: QVQLQQSGAELARPGASVKLSCMASGYTFTTYGISWVRQRTGQGLEWIGQIYPGSDYSYCDEDFKGKATLTADKSSSTAYMQLSSLTSEDSAVYFCARASYFDYWGQGTTLTVSS VL: DILLTQSPAILSVSPGERVSFSCRASQTIGTAIHWYQQRANGSPRLLIKYASESISGIPSRFSGSGSGTDFALSINTVESEDFAYYYCQQSNNWPFTFGGGTKLEIR | – | – | 0.757 | – | – | – |
| mouse antibody A1H3C5H8E12 (antibody, V domains shown, Mouse monoclonal IgG purified from hybridoma supernatant) VH: QVQLQQSGAELVRPGTSVKMSCKAAGYTFTNYWIDWVKQRPGHGLEWIGNIFPGGFYTNYNEKFKGKATLTADTSSSTAYMQLSSLTSEDSAIYYCARGGVFDYWGQGTTLTVSS VL: DILLTQSPAILSVSPGERVSFSCRASQSIGTSIHWYQQRTNGSPRLLIKYASESISGIPSRFSGSGSGTDFTLSINSVESEDIADYYCQQSNSWPYTFGGGTKLEIK | – | – | 0.593 | – | – | – |
| huA1E4F7D4-V16 (antibody, human IgG1, kappa, V domains shown, Positions of the X residues are given in the claims; also called humanized antibody huA1E4F7D4-V16) VH: QVQLVQSGAEVKKPGASVKVSCKASGYSFTTHWIHWVRQAPGQGLEWIGTIFPSNAYAVYNQKFRDRATMTADTSISTAYIELSRLRSDDTAVYYCARASYFDYWGQGTTVTVSS VL: EIVLTQSPATLSLSPGERATLSCRASQNIGTSIHWFQQKPGGAPRLLIKYASESISGIPSRFSGSGSGTDFTLTISSLEPEDFAVYYCQHSHSWPFTFGQGTKLEIKR | – | – | – | 0.353 | 0.054 | – |
| benchmark (in house prepared sacituzumab) (antibody, human IgG1, kappa, V domains shown, also called BM; BM1) VH: SVQLQQSGSELKKPGASVKVSCKASGYTFTNYGMNWVKQAPGQGLKWMGWINTYTGEPTYTDDFKGRFAFSLDTSVSTAYLQISSLKADDTAVYFCARGGFGSSYWYFDVWGQGSLVTVSS VL: DIQLTQSPSSLSASVGDRVSITCKASQDVSIAVAWYQQKPGKAPKLLIYSASYRYTGVPDRFSGSGSGTDFTLTISSLQPEDFAVYYCQQHYITPLTFGAGTKVEIKR | 1.14 | – | 0.134 | – | 0.316 | 0.385 |
